The test system of this data set is Escherichia coli TOP10. The data set can be described thus: shrunken log2 fold change of peptide-encoding DNA abundance (4.5 h post-induction vs induction); higher = less antimicrobial activity (less host growth inhibition). Conditions: time post-induction: 4.5 h; library: site-saturation at positions 5, 18, 19, 20.
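Further: peptides expressed intracellularly from a pBAD plasmid library in pooled LB shake-flask culture, induced with 0.3% L-arabinose, DNA abundance read by NGS, three biological replicates, DESeq2 with apeglm shrinkage.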

Turning to RRIRSRPPRLPRPRPRPDEIPRP, the “shrunken log2 fold change” value was found to be 0.139.

Take RRIRSRPPRLPRPRPRPQHTPRP: the “shrunken log2 fold change” value was -0.424.

For the sequence RRIRDRPPRLPRPRPRPGKCPRP, the “shrunken log2 fold change” value was -0.105.

RRIRVRPPRLPRPRPRPLKGPRP: the “shrunken log2 fold change” value was -0.211.

As to RRIRHRPPRLPRPRPRPGAKPRP, the “shrunken log2 fold change” value amounted to 0.219.

For the sequence RRIRHRPPRLPRPRPRPHEFPRP, the “shrunken log2 fold change” value worked out at 0.0248.

Regarding RRIRHRPPRLPRPRPRPDPKPRP, the “shrunken log2 fold change” value worked out at 0.0039.

Regarding RRIRHRPPRLPRPRPRPCPIPRP, the “shrunken log2 fold change” value was -0.0539.

As to RRIRTRPPRLPRPRPRPLQVPRP, the “shrunken log2 fold change” value was -0.219.

As for RRIRLRPPRLPRPRPRPPKLPRP, the “shrunken log2 fold change” value came to 0.252.

Turning to RRIRHRPPRLPRPRPRPWFIPRP, the “shrunken log2 fold change” value was -0.775.

For the sequence RRIRKRPPRLPRPRPRPVRNPRP, the “shrunken log2 fold change” value came out at 0.308.

RRIRMRPPRLPRPRPRPDRYPRP: the “shrunken log2 fold change” value was -0.0269.

RRIRLRPPRLPRPRPRPEVCPRP: the “shrunken log2 fold change” value is -0.0515.

RRIRRRPPRLPRPRPRPSYEPRP: the “shrunken log2 fold change” value is -0.33.

On to RRIRWRPPRLPRPRPRPAWQPRP, for which the “shrunken log2 fold change” value is 0.427.

On to RRIRFRPPRLPRPRPRPTMAPRP, for which the “shrunken log2 fold change” value amounted to 0.185.

In the case of RRIRTRPPRLPRPRPRPKGKPRP, the “shrunken log2 fold change” value came out at 0.34.

For the sequence RRIRTRPPRLPRPRPRPRMDPRP, the “shrunken log2 fold change” value is -0.38.

On to RRIRTRPPRLPRPRPRPISHPRP, for which the “shrunken log2 fold change” value is -0.328.

As for RRIRRRPPRLPRPRPRPQCRPRP, the “shrunken log2 fold change” value stood at 0.123.

RRIRTRPPRLPRPRPRPAWTPRP: the “shrunken log2 fold change” value stood at 0.101.

For the sequence RRIRWRPPRLPRPRPRPSENPRP, the “shrunken log2 fold change” value is -0.134.

In the case of RRIRVRPPRLPRPRPRPDNPPRP, the “shrunken log2 fold change” value is -0.101.

For RRIRYRPPRLPRPRPRPNTAPRP, the “shrunken log2 fold change” value is -0.0149.

Regarding RRIRMRPPRLPRPRPRPCLFPRP, the “shrunken log2 fold change” value is -0.155.

Consider RRIRARPPRLPRPRPRPRDEPRP, for which the “shrunken log2 fold change” value was determined as 1.06.

With RRIRERPPRLPRPRPRPLFDPRP, the “shrunken log2 fold change” value is -0.581.

RRIRFRPPRLPRPRPRPRKSPRP: the “shrunken log2 fold change” value stood at 0.123.

Consider RRIRNRPPRLPRPRPRPEHNPRP, for which the “shrunken log2 fold change” value was -0.486.

Take RRIRMRPPRLPRPRPRPSLGPRP: the “shrunken log2 fold change” value came out at 0.193.

For the sequence RRIRMRPPRLPRPRPRPSQAPRP, the “shrunken log2 fold change” value amounted to 0.689.

As to RRIRRRPPRLPRPRPRPWQRPRP, the “shrunken log2 fold change” value is 0.188.

In the case of RRIRYRPPRLPRPRPRPVHSPRP, the “shrunken log2 fold change” value was -0.155.

Take RRIRIRPPRLPRPRPRPRGRPRP: the “shrunken log2 fold change” value was found to be 0.229.

As for RRIRKRPPRLPRPRPRPYHWPRP, the “shrunken log2 fold change” value is -0.164.

On to RRIRKRPPRLPRPRPRPCIAPRP, for which the “shrunken log2 fold change” value was -0.0581.

As for RRIRIRPPRLPRPRPRPDPGPRP, the “shrunken log2 fold change” value was -0.0404.

In the case of RRIRDRPPRLPRPRPRPDSGPRP, the “shrunken log2 fold change” value was -0.00436.

As for RRIRVRPPRLPRPRPRPAIWPRP, the “shrunken log2 fold change” value came to 0.0627.

Regarding RRIRARPPRLPRPRPRPQTRPRP, the “shrunken log2 fold change” value is 0.874.

Take RRIRERPPRLPRPRPRPTTTPRP: the “shrunken log2 fold change” value was -0.0224.

As to RRIRKRPPRLPRPRPRPKKHPRP, the “shrunken log2 fold change” value was 0.276.

Turning to RRIRMRPPRLPRPRPRPGVCPRP, the “shrunken log2 fold change” value is 0.535.

Take RRIRMRPPRLPRPRPRPVNGPRP: the “shrunken log2 fold change” value is -0.0577.

As for RRIRNRPPRLPRPRPRPSVPPRP, the “shrunken log2 fold change” value was -0.344.

Turning to RRIRMRPPRLPRPRPRPATDPRP, the “shrunken log2 fold change” value stood at 0.843.

On to RRIRSRPPRLPRPRPRPEQEPRP, for which the “shrunken log2 fold change” value stood at 0.0257.

RRIRSRPPRLPRPRPRPHCIPRP: the “shrunken log2 fold change” value is 0.021.

Regarding RRIRHRPPRLPRPRPRPFSIPRP, the “shrunken log2 fold change” value was -0.392.

In the case of RRIRERPPRLPRPRPRPCSMPRP, the “shrunken log2 fold change” value is -0.0884.

For the sequence RRIRYRPPRLPRPRPRPENTPRP, the “shrunken log2 fold change” value was -0.879.

Regarding RRIRFRPPRLPRPRPRPHLWPRP, the “shrunken log2 fold change” value turned out to be 0.185.

As to RRIRARPPRLPRPRPRPNRPPRP, the “shrunken log2 fold change” value was -0.111.

Take RRIRIRPPRLPRPRPRPEVPPRP: the “shrunken log2 fold change” value is -0.0152.

Take RRIRARPPRLPRPRPRPSDLPRP: the “shrunken log2 fold change” value is -0.073.

On to RRIRSRPPRLPRPRPRPCFGPRP, for which the “shrunken log2 fold change” value is -0.217.

As for RRIRARPPRLPRPRPRPHVEPRP, the “shrunken log2 fold change” value was determined as 0.147.

For RRIRWRPPRLPRPRPRPSPNPRP, the “shrunken log2 fold change” value was 0.106.

Regarding RRIRQRPPRLPRPRPRPCFLPRP, the “shrunken log2 fold change” value was 0.115.

As to RRIRWRPPRLPRPRPRPNPRPRP, the “shrunken log2 fold change” value stood at 0.452.

Take RRIRARPPRLPRPRPRPHRPPRP: the “shrunken log2 fold change” value is -0.0433.

As for RRIRARPPRLPRPRPRPHFHPRP, the “shrunken log2 fold change” value is -0.197.

For the sequence RRIRTRPPRLPRPRPRPMVSPRP, the “shrunken log2 fold change” value is -0.0669.

Consider RRIRGRPPRLPRPRPRPILNPRP, for which the “shrunken log2 fold change” value is -0.0611.

Turning to RRIRQRPPRLPRPRPRPMWAPRP, the “shrunken log2 fold change” value was -0.127.

Take RRIRIRPPRLPRPRPRPHCNPRP: the “shrunken log2 fold change” value was -0.784.

With RRIRMRPPRLPRPRPRPWPPPRP, the “shrunken log2 fold change” value was 1.09.

RRIRFRPPRLPRPRPRPIESPRP: the “shrunken log2 fold change” value was -0.15.

Take RRIRNRPPRLPRPRPRPKKLPRP: the “shrunken log2 fold change” value was -0.0729.

Consider RRIRERPPRLPRPRPRPLNMPRP, for which the “shrunken log2 fold change” value was -0.528.

As to RRIRGRPPRLPRPRPRPACLPRP, the “shrunken log2 fold change” value is 0.792.

For RRIRMRPPRLPRPRPRPGAPPRP, the “shrunken log2 fold change” value was determined as 1.31.

RRIRRRPPRLPRPRPRPPWGPRP: the “shrunken log2 fold change” value is 0.0337.

In the case of RRIRYRPPRLPRPRPRPSMFPRP, the “shrunken log2 fold change” value is -1.02.

Consider RRIRHRPPRLPRPRPRPSGHPRP, for which the “shrunken log2 fold change” value was -0.172.

For RRIRHRPPRLPRPRPRPAESPRP, the “shrunken log2 fold change” value is -0.218.

Turning to RRIRNRPPRLPRPRPRPTPPPRP, the “shrunken log2 fold change” value was found to be 0.49.

With RRIRMRPPRLPRPRPRPYVPPRP, the “shrunken log2 fold change” value is -0.584.

In the case of RRIRWRPPRLPRPRPRPITWPRP, the “shrunken log2 fold change” value came to 0.0636.

RRIRSRPPRLPRPRPRPQYEPRP: the “shrunken log2 fold change” value was -0.355.

With RRIRTRPPRLPRPRPRPMPSPRP, the “shrunken log2 fold change” value is -0.128.

RRIRNRPPRLPRPRPRPTKHPRP: the “shrunken log2 fold change” value was -0.0431.

Take RRIRWRPPRLPRPRPRPQATPRP: the “shrunken log2 fold change” value is 0.381.

As for RRIRSRPPRLPRPRPRPQYIPRP, the “shrunken log2 fold change” value is -0.206.

For the sequence RRIRYRPPRLPRPRPRPCSFPRP, the “shrunken log2 fold change” value is -0.0048.

Turning to RRIRWRPPRLPRPRPRPMIWPRP, the “shrunken log2 fold change” value came out at 0.0116.

On to RRIRQRPPRLPRPRPRPISPPRP, for which the “shrunken log2 fold change” value was -0.0311.

In the case of RRIRMRPPRLPRPRPRPSYVPRP, the “shrunken log2 fold change” value was -0.331.

With RRIRQRPPRLPRPRPRPFGGPRP, the “shrunken log2 fold change” value is 0.0432.

Turning to RRIRKRPPRLPRPRPRPSEDPRP, the “shrunken log2 fold change” value is -0.0464.

These data come from the supplement of paper PMC9112550, “Optimization of the antimicrobial peptide Bac7 by deep mutational scanning” (BMC Biology, 2022).
